From patent US20060275301A1 (Chugai, published 2006)

Target: T1, β2 microglobulin (human, UniProt P61769 21-119)
T1 construct: β2M alone, as a denatured band on a Western blot; also called 12 kD molecule
Test: Western blot

binding result: no binding
B1: 2D7 antibody (antibody, V domains shown)
VH: QVQLQQSGPELVKPGASVKMSCKASGYTFTDYFIHWVKQRPGQGLEWIGWIFPGDDTTDYNEKFRGKTTLTADKSSSTAYILLSSLTSEDSAMYFCVRSDDFDYWGQGTTLTVSS
VL: QIVLTQSPAIMSASPGEKVTITCSASSSVSYMHWFQQKPGTFPKLWIYSTSNLASGVPTRFSGSGSGTSYSLTISRMEAEDAATYYCQQRTSYPPTFGSGTKLEIK
notes: CDR1 starts at 50 and 46, so these ranges probably include the leader, but no cleavage site is stated
